{"source": "paper PMC5109244", "key": {"[1]": {"target": "full-length WT DNGR-1 (mouse, long isoform), transmembrane receptor (mouse)", "assay": "reducing SDS-PAGE and Western blot; Phoenix cells expressing full-length DNGR-1 lysed in 1% SDS in 10 mM MES pH 6.1; reducing conditions; anti-DNGR-1 (clone 397) detection"}, "[2]": {"target": "full-length WT DNGR-1 (mouse, long isoform), transmembrane receptor (mouse)", "assay": "reducing SDS-PAGE and Western blot; Phoenix cells expressing full-length DNGR-1 lysed in 1% SDS in PBS; reducing conditions; anti-DNGR-1 (clone 397) detection; reduction-sensitive (type-1) dimers run as monomers"}, "[3]": {"target": "Δ6A mutant long mouse DNGR-1 ECD (all residues of block 6, Q95–S104, replaced by alanines) (mouse)", "assay": "non-reducing SDS-PAGE and Western blot; supernatants of 293F cells with FLAG-tagged ECD proteins, Laemmli buffer without reducing agent, HRP-conjugated anti-FLAG detection"}, "[4]": {"target": "long mouse DNGR-1 ECD (extracellular domain of the long isoform of mouse DNGR-1, wild type) (mouse)", "assay": "non-reducing SDS-PAGE and Western blot; purified long mouse ECD in PBS or 10 mM MES pH 6.1, Laemmli buffer or 8 M urea, no reducing agent"}, "[5]": {"target": "long mouse DNGR-1 ECD (extracellular domain of the long isoform of mouse DNGR-1, wild type) (mouse)", "assay": "non-reducing SDS-PAGE and Western blot; supernatants of 293F cells with FLAG-tagged ECD proteins, Laemmli buffer without reducing agent, HRP-conjugated anti-FLAG detection"}, "[6]": {"target": "long mouse DNGR-1 ECD (extracellular domain of the long isoform of mouse DNGR-1, wild type) (mouse)", "assay": "reducing SDS-PAGE and Western blot; purified ECD diluted into buffers of low pH and low ionic strength (10 mM MES pH 6.1; 10 mM Tris; 36 buffers of pH 6.5–8.05 and 15–250 mM ionic strength); 100 mM DTT in Laemmli buffer; reduction-resistant (type-2) dimers"}, "[7]": {"target": "Δ4 mutant long mouse DNGR-1 ECD (N81–T90 removed) (mouse)", "assay": "reducing SDS-PAGE and Western blot; supernatants with FLAG-tagged ECD proteins diluted into 10 mM MES pH 6.1; 100 mM DTT in Laemmli buffer; anti-FLAG detection; reduction-resistant (type-2) dimers"}, "[8]": {"target": "Δ4 mutant long mouse DNGR-1 ECD (N81–T90 removed) (mouse)", "assay": "reducing SDS-PAGE and Western blot; supernatants with FLAG-tagged ECD proteins, neat or diluted into PBS (neutral conditions); reduced with DTT (100 mM) or β-ME in Laemmli buffer; anti-FLAG detection"}, "[9]": {"target": "Δ4A mutant long mouse DNGR-1 ECD (all residues of block 4, N81–T90, replaced by alanines) (mouse)", "assay": "non-reducing SDS-PAGE and Western blot; supernatants of 293F cells with FLAG-tagged ECD proteins, Laemmli buffer without reducing agent, HRP-conjugated anti-FLAG detection"}, "[10]": {"target": "Δ4A mutant long mouse DNGR-1 ECD (all residues of block 4, N81–T90, replaced by alanines) (mouse)", "assay": "reducing SDS-PAGE and Western blot; supernatants with FLAG-tagged ECD proteins, neat or diluted into PBS (neutral conditions); reduced with DTT (100 mM) or β-ME in Laemmli buffer; anti-FLAG detection"}, "[11]": {"target": "chimeric DNGR-1:dectin-1 ECD (neck region of long mouse DNGR-1 fused to the CTLD of dectin-1) (mouse)", "assay": "non-reducing SDS-PAGE and Western blot; supernatants of 293F cells with FLAG-tagged ECD proteins, Laemmli buffer without reducing agent, HRP-conjugated anti-FLAG detection"}, "[12]": {"target": "full-length Δ4 DNGR-1 (mouse, long isoform; N81–T90 removed) (mouse)", "assay": "reducing SDS-PAGE and Western blot; Phoenix cells expressing full-length DNGR-1 lysed in 1% SDS in 10 mM MES pH 6.1; reducing conditions; anti-DNGR-1 (clone 397) detection"}, "[13]": {"target": "full-length Δ4 DNGR-1 (mouse, long isoform; N81–T90 removed) (mouse)", "assay": "reducing SDS-PAGE and Western blot; Phoenix cells expressing full-length DNGR-1 lysed in 1% SDS in PBS; reducing conditions; anti-DNGR-1 (clone 397) detection; reduction-sensitive (type-1) dimers run as monomers"}, "[14]": {"target": "Δ3A mutant long mouse DNGR-1 ECD (all residues of block 3, L72–L82, replaced by alanines) (mouse)", "assay": "non-reducing SDS-PAGE and Western blot; supernatants of 293F cells with FLAG-tagged ECD proteins, Laemmli buffer without reducing agent, HRP-conjugated anti-FLAG detection"}}}
{"substance": "full-length WT DNGR-1 (mouse, long isoform), transmembrane receptor", "values": [{"measurement": "stoichiometry N", "setting": "[1]", "value": 2}, {"measurement": "stoichiometry N", "setting": "[2]", "value": 2}]}
{"substance": "Δ6A mutant long mouse DNGR-1 ECD (all residues of block 6, Q95–S104, replaced by alanines) (domain or fragment)", "values": [{"measurement": "stoichiometry N", "setting": "[3]", "value": 2}]}
{"substance": "long mouse DNGR-1 ECD (extracellular domain of the long isoform of mouse DNGR-1, wild type) (domain or fragment)", "values": [{"measurement": "stoichiometry N", "setting": "[4]", "value": 2}, {"measurement": "stoichiometry N", "setting": "[5]", "value": 2}, {"measurement": "stoichiometry N", "setting": "[6]", "value": 2}]}
{"substance": "Δ4 mutant long mouse DNGR-1 ECD (N81–T90 removed) (domain or fragment)", "values": [{"measurement": "stoichiometry N", "setting": "[7]", "value": 2}, {"measurement": "stoichiometry N", "setting": "[8]", "value": 2}]}
{"substance": "Δ4A mutant long mouse DNGR-1 ECD (all residues of block 4, N81–T90, replaced by alanines) (domain or fragment)", "values": [{"measurement": "stoichiometry N", "setting": "[9]", "value": 2}, {"measurement": "stoichiometry N", "setting": "[10]", "value": 2}]}
{"substance": "chimeric DNGR-1:dectin-1 ECD (neck region of long mouse DNGR-1 fused to the CTLD of dectin-1)", "values": [{"measurement": "stoichiometry N", "setting": "[11]", "value": 2}]}
{"substance": "full-length Δ4 DNGR-1 (mouse, long isoform; N81–T90 removed) (receptor)", "values": [{"measurement": "stoichiometry N", "setting": "[12]", "value": 2}, {"measurement": "stoichiometry N", "setting": "[13]", "value": 2}]}
{"substance": "Δ3A mutant long mouse DNGR-1 ECD (all residues of block 3, L72–L82, replaced by alanines) (domain or fragment)", "values": [{"measurement": "stoichiometry N", "setting": "[14]", "value": 2}]}
